# Measured values taken from paper PMC10014863, “Structural analysis of the housecleaning nucleoside triphosphate pyrophosphohydrolase MazG from Mycobacterium tuberculosis” (Frontiers in Microbiology, 2023).
# Biological target: the molecule itself
# Test: SEC
protein,measurement,value
"Mycobacterium tuberculosis MazG (Mtb-MazG), full-length wild type (enzyme, also called WT MazG; full-length MazG) MIVVLVDPRRPTLVPVEAIEFLRGEVQYTEEMPVAVPWSLPAARSAHAGNDAPVLLSSDPNHPAVITRLAAGARLISAPDSQRGERLVDAVAMMDKLRTAGPWESEQTHDSLRRYLLEETYELLDAVRSGSVDQLREELGDLLLQVLFHARIAEDASQSPFTIDDVADTLMRKLGNRAPGVLAGESISLEDQLAQWEAAKASEKARKSVADDVHTGQPALALAQKVIQRAQKAGLPAHLIPDEITSVSVSADVDAENTLRTAVLDFIDRLRCAERAIAVARRGSNVAEQLDVTPLGVITEQEWLAHWPTAVNDSRGGSKKRKGMR",stoichiometry N,2
